From patent US20120282285A1 (RIGSHOSPITALET, published 2012)
Values belong to the binder of their own block, whether it stands above or below them.

How the values were obtained:
Ficolin-3 [1] = target: T1, Ficolin-3 (human, UniProt O75636 24-299); assay: 10-30% sucrose gradient of serum; fractions read by western blot
T1 construct: Serum Ficolin-3 in the co-precipitations, ELISA and gradient. rFicolin-3 on acetylated BSA in the C4 deposition assays; also called rFicolin-3; recombinant human Ficolin-3
Experimental: (§1) Normal human serum was subjected to sucrose gradient separation. 0.75 ml serum was loaded onto 40 ml centrifugation columns consisting of 10-30% sucrose gradients buffered in 10 mM Tris, 145 mM NaCl, 3 mM CaCl₂ and human serum albumin at 30 μg/ml. The loaded columns were centrifuged at 150.000×g in vacuum for 24 hours at 4° C. in a L70 Beckmann ultracentrifuge with a SW28 rotor head. 1.5 ml fractions were collected from the bottom and analyzed by specific ELISA or immunoblotting for the following antigens: MAP-1, MASP-1, MASP-2, MASP-3, sMAP, MBL, Ficolin-2 and Ficolin-3. The peaks of the serum IgM (19S) and IgG (7S) were also assessed indicating the molecular […]. Additionally the fractions were analyzed for the capacity to activate exogenously applied C4. […] The C4 deposition was subsequently measured with polyclonal antibodies to C4c (Q 0369, Dako, Glostrup, Denmark).
(§2) In order to investigate the distribution of MAP-1 in relation to associated molecules and to examine how much appears non-associated we subjected normal human serum to density fractionation using a 10-30% sucrose gradient and ultracentrifugation. Subsequently the collected fractions were analyzed for MAP-1, MASP-3, MBL, Ficolin-2 and -3 by ELISA (FIG. 31A) and MAP-1, MASP-1, -2 and -3, sMAP, MBL, Ficolin-2 and -3 by western blotting (FIG. 31B). […]

Ficolin-3 [2] = target: T1, Ficolin-3; assay: 10-30% sucrose gradient of serum; fractions read by ELISA and western blot
Experimental: as §1, §2

T1 sequence (O75636 24-299 limits assumed): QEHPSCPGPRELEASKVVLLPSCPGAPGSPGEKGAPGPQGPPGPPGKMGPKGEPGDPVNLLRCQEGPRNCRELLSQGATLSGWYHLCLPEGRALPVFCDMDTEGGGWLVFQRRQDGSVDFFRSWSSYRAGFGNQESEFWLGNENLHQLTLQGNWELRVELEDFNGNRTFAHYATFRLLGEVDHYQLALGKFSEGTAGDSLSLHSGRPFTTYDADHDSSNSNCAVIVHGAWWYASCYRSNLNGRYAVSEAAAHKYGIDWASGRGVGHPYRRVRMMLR

binding result (Ficolin-3 [1]): binds
B1: small MBL-associated protein (sMAP) (other)
chain: TPLGPKWPEPVFGRLASPGFPGEYANDQERRWTLTAPPGYRLRLYFTHFDLELSHLCEYDFVKLSSGAKVLATLCGQESTDTERAPGKDTFYSLGSSLDITFRSDYSNEKPFTGFEAFYAAEDIDECQVAPGEAPTCDHHCHNHLGGFYCSCRAGYVLHRNKRTCSEQSL
notes: Serum protein in the sucrose gradient; also called MAp19; MBL-associated plasma protein of 19 kD

binding result (Ficolin-3 [2]): binds
B2: MBL-Associated Serine Protease-3 (MASP-3) (enzyme)
chain: HTVELNNMFGQIQSPGYPDSYPSDSEVTWNITVPDGFRIKLYFMHFNLESSYLCEYDYVKVETEDQVLATFCGRETTDTEQTPGQEVVLSPGSFMSITFRSDFSNEERFTGFDAHYMAVDVDECKEREDEELSCDHYCHNYIGGYYCSCRFGYILHTDNRTCRVECSDNLFTQRTGVITSPDFPNPYPKSSECLYTIELEEGFMVNLQFEDIFDIEDHPEVPCPYDYIKIKVGPKVLGPFCGEKAPEPISTQSHSVLILFHSDNSGENRGWRLSYRAAGNECPELQPPVHGKIEPSQAKYFFKDQVLVSCDTGYKVLKDNVEMDTFQIECLKDGTWSNKIPTCKIVDCRAPGELEHGLITFSTRNNLTTYKSEIKYSCQEPYYKMLNNNTGIYTCSAQGVWMNKVLGRSLPTCLPECGQPSRSLPSLVKRIIGGRNAEPGLFPWQALIVVEDTSRVPNDKWFGSGALLSASWILTAAHVLRSQRRDTTVIPVSKEHVTVYLGLHDVRDKSGAVNSSAARVVLHPDFNIQNYNHDIALVQLQEPVPLGPHVMPVCLPRLEPEGPAPHMLGLVAGWGISNPNVTVDEIISSGTRTLSDVLQYVKLPVVPHAECKTSYESRSGNYSVTENMFCAGYYEGGKDTCLGDSGGAFVIFDDLSQRWVVQGLVSWGGPEECGSKQVYGVYTKVSNYVDWVWEQMGLPQSVVEPQVER
notes: also called rMASP-3
